# Source: patent US20150344570A1 (published 2015)
# T1: FcγRIIa H (human, UniProt P12318 34-217)
# T1 construct: extracellular domain; also called FcγRIIa type H; 2aH
# T1 sequence (looked up): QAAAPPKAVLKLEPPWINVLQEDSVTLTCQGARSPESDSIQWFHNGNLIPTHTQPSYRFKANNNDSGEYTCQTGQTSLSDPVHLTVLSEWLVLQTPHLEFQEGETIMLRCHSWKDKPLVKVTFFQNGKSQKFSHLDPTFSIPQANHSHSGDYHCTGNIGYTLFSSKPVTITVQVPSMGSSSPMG
# T2: FcγRIIb (human, UniProt P31994 43-217)
# T2 construct: extracellular domain; also called 2b; FcgRIIb
# T2 sequence (looked up): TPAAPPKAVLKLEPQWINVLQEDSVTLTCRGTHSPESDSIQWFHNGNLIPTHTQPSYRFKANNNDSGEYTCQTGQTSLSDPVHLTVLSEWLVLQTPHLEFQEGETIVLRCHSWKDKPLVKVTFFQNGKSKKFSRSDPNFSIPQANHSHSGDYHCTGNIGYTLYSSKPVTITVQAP
# B1: GpH7-A5/GpH7-B3 variant D270_10E/GpL16-k0 (antibody, human IgG1, kappa)
# heavy 1: not shown
# heavy 2: not shown
# light: DIVMTQSPLSLPVTPGEPASISCQASESLVHSNRNTYLHWYLQKPGQSPQLLIYKVSNRFSGVPDRFSGSGSGTDFTLKISRVEAEDVGVYYCSQNTHVPPTFGQGTKVEIERTVAAPSVFIFPPSDEQLKSGTASVVCLLNNFYPREAKVQWKVDNALQSGNSQESVTEQDSKDSTYSLSSTLTLSKADYEKHKVYACEVTHQGLSSPVTKSFNRGEC
# notes: Heterodimerized anti-glypican-3 IgG1 (He Ab); mutation in the B3 H chain only; also called He Ab
# B2: GpH7-A5/GpH7-B3 variant D270_11K/GpL16-k0 (antibody, human IgG1, kappa)
# heavy 1: not shown
# heavy 2: not shown
# light: B1 light
# notes: as for B1
# B3: GpH7-A5/GpH7-B3 variant D270_12R/GpL16-k0 (antibody, human IgG1, kappa)
# heavy 1: not shown
# heavy 2: not shown
# light: B1 light
# notes: as for B1
# B4: GpH7-A5/GpH7-B3 variant D270_13S/GpL16-k0 (antibody, human IgG1, kappa)
# heavy 1: not shown
# heavy 2: not shown
# light: B1 light
# notes: as for B1
# B5: GpH7-A5/GpH7-B3 variant D270_14T/GpL16-k0 (antibody, human IgG1, kappa)
# heavy 1: not shown
# heavy 2: not shown
# light: B1 light
# notes: as for B1
# B6: GpH7-A5/GpH7-B3 variant D270_15Y/GpL16-k0 (antibody, human IgG1, kappa)
# heavy 1: not shown
# heavy 2: not shown
# light: B1 light
# notes: as for B1
# B7: GpH7-A5/GpH7-B3 variant D270_16H/GpL16-k0 (antibody, human IgG1, kappa)
# heavy 1: not shown
# heavy 2: not shown
# light: B1 light
# notes: as for B1
# B8: GpH7-A5/GpH7-B3 variant D270_18N/GpL16-k0 (antibody, human IgG1, kappa)
# heavy 1: not shown
# heavy 2: not shown
# light: B1 light
# notes: as for B1
# B9: GpH7-A5/GpH7-B3 variant D270_19Q/GpL16-k0 (antibody, human IgG1, kappa)
# heavy 1: not shown
# heavy 2: not shown
# light: B1 light
# notes: as for B1
# B10: GpH7-A5/GpH7-B3 variant D270_20W/GpL16-k0 (antibody, human IgG1, kappa)
# heavy 1: not shown
# heavy 2: not shown
# light: B1 light
# notes: as for B1
# B11: GpH7-A5/GpH7-B3 variant E269_02A/GpL16-k0 (antibody, human IgG1, kappa)
# heavy 1: not shown
# heavy 2: not shown
# light: B1 light
# notes: as for B1
# B12: GpH7-A5/GpH7-B3 variant E269_03V/GpL16-k0 (antibody, human IgG1, kappa)
# heavy 1: not shown
# heavy 2: not shown
# light: B1 light
# notes: as for B1
# B13: GpH7-A5/GpH7-B3 variant E269_04F/GpL16-k0 (antibody, human IgG1, kappa)
# heavy 1: not shown
# heavy 2: not shown
# light: B1 light
# notes: as for B1
# B14: GpH7-A5/GpH7-B3 variant E269_06M/GpL16-k0 (antibody, human IgG1, kappa)
# heavy 1: not shown
# heavy 2: not shown
# light: B1 light
# notes: as for B1
# B15: GpH7-A5/GpH7-B3 variant E269_07I/GpL16-k0 (antibody, human IgG1, kappa)
# heavy 1: not shown
# heavy 2: not shown
# light: B1 light
# notes: as for B1
# B16: GpH7-A5/GpH7-B3 variant E269_08L/GpL16-k0 (antibody, human IgG1, kappa)
# heavy 1: not shown
# heavy 2: not shown
# light: B1 light
# notes: as for B1
# B17: GpH7-A5/GpH7-B3 variant E269_11K/GpL16-k0 (antibody, human IgG1, kappa)
# heavy 1: not shown
# heavy 2: not shown
# light: B1 light
# notes: as for B1
# B18: GpH7-A5/GpH7-B3 variant E269_12R/GpL16-k0 (antibody, human IgG1, kappa)
# heavy 1: not shown
# heavy 2: not shown
# light: B1 light
# notes: as for B1
# B19: GpH7-A5/GpH7-B3 variant E269_13S/GpL16-k0 (antibody, human IgG1, kappa)
# heavy 1: not shown
# heavy 2: not shown
# light: B1 light
# notes: as for B1
# B20: GpH7-A5/GpH7-B3 variant E269_14T/GpL16-k0 (antibody, human IgG1, kappa)
# heavy 1: not shown
# heavy 2: not shown
# light: B1 light
# notes: as for B1
# B21: GpH7-A5/GpH7-B3 variant E269_15Y/GpL16-k0 (antibody, human IgG1, kappa)
# heavy 1: not shown
# heavy 2: not shown
# light: B1 light
# notes: as for B1
# B22: GpH7-A5/GpH7-B3 variant E269_16H/GpL16-k0 (antibody, human IgG1, kappa)
# heavy 1: not shown
# heavy 2: not shown
# light: B1 light
# notes: as for B1
# B23: GpH7-A5/GpH7-B3 variant E269_18N/GpL16-k0 (antibody, human IgG1, kappa)
# heavy 1: not shown
# heavy 2: not shown
# light: B1 light
# notes: as for B1
# B24: GpH7-A5/GpH7-B3 variant E269_19Q/GpL16-k0 (antibody, human IgG1, kappa)
# heavy 1: not shown
# heavy 2: not shown
# light: B1 light
# notes: as for B1
# B25: GpH7-A5/GpH7-B3 variant E269_20W/GpL16-k0 (antibody, human IgG1, kappa)
# heavy 1: not shown
# heavy 2: not shown
# light: B1 light
# notes: as for B1
# B26: GpH7-A5/GpH7-B3 variant P271_15Y/GpL16-k0 (antibody, human IgG1, kappa)
# heavy 1: not shown
# heavy 2: not shown
# light: B1 light
# notes: as for B1
# B27: GpH7-A5/GpH7-B3 variant P271_20W/GpL16-k0 (antibody, human IgG1, kappa)
# heavy 1: not shown
# heavy 2: not shown
# light: B1 light
# notes: as for B1
# B28: GpH7-A5/GpH7-B3 variant Q295_03V/GpL16-k0 (antibody, human IgG1, kappa)
# heavy 1: not shown
# heavy 2: not shown
# light: B1 light
# notes: as for B1
# B29: GpH7-A5/GpH7-B3 variant Q295_05P/GpL16-k0 (antibody, human IgG1, kappa)
# heavy 1: not shown
# heavy 2: not shown
# light: B1 light
# notes: as for B1
# B30: GpH7-A5/GpH7-B3 variant Q295_07I/GpL16-k0 (antibody, human IgG1, kappa)
# heavy 1: not shown
# heavy 2: not shown
# light: B1 light
# notes: as for B1
# B31: GpH7-A5/GpH7-B3 variant Q295_11K/GpL16-k0 (antibody, human IgG1, kappa)
# heavy 1: not shown
# heavy 2: not shown
# light: B1 light
# notes: as for B1
# B32: GpH7-A5/GpH7-B3 variant Q295_12R/GpL16-k0 (antibody, human IgG1, kappa)
# heavy 1: not shown
# heavy 2: not shown
# light: B1 light
# notes: as for B1
# B33: GpH7-A5/GpH7-B3 variant Q295_13S/GpL16-k0 (antibody, human IgG1, kappa)
# heavy 1: not shown
# heavy 2: not shown
# light: B1 light
# notes: as for B1
# B34: GpH7-A5/GpH7-B3 variant Q295_16H/GpL16-k0 (antibody, human IgG1, kappa)
# heavy 1: not shown
# heavy 2: not shown
# light: B1 light
# notes: as for B1
# Target: T1, FcγRIIa H
# Assay: ratio of He/Con_2aH to He/Con_2b (FcγRIIb); SPR
row,Binder,He_2aH/2b (IIaH/IIb ratio)
1,B1,1.34
2,B2,2.17
3,B3,2.16
4,B4,1.61
5,B5,1.3
6,B6,1.6
7,B7,1.51
8,B8,1.55
9,B9,1.77
10,B10,1.74
11,B11,1.56
12,B12,1.49
13,B13,1.52
14,B14,1.58
15,B15,1.52
16,B16,1.57
17,B17,2.87

row,Binder,He_2aH/2b (IIaH/IIb ratio)
1,B18,1.86
2,B19,1.46
3,B20,1.37
4,B21,1.57
5,B22,1.53
6,B23,1.44
7,B24,1.81
8,B25,1.43
9,B26,1.24
10,B27,1.33
11,B28,1.22
12,B29,1.53
13,B30,1.21
14,B31,1.27
15,B32,1.29
16,B33,1.22
17,B34,1.25

# Target: T1, FcγRIIa H
# Assay: SPR (Biacore), captured antibody, FcγR as analyte; GpH7-A5/GpH7-B3/GpL16-k0 = 100
# Procedure: (§1) The heterodimerized antibodies He Abs in which one of the H chains was introduced with an alteration were assayed for their binding activities to each activating FcγR and inhibitory FcγR according to the method described in Example 4. […] The activating FcγRs in FIGS. 26, 27, 28, and 29 are FcγRIa, FcγRIIa (R), FcγRIIa (H), and FcγRIIIa, respectively.
# (§2) Analysis of interaction between objective antibody and the FcγR was carried out using Biacore T100 (GE Healthcare). HBS-EP+ (GE Healthcare) was used as the running buffer, and the measurement temperature was set to 25° C. Chips produced by immobilizing the antigen peptide by the amine coupling method to a Series S Sencor Chip CM5 (GE Healthcare), or alternatively, chips produced by allowing preliminarily biotinylated antigen peptides to interact with and immobilize onto a Series S Sensor Chip SA (certified) (GE Healthcare) were used. Antibodies of interest were captured onto an antigen peptide-immobilized chip, and allowed to interact to each FcγR diluted with running buffer. To regenerate and repeatedly use the chip, the antibodies captured on the chip were washed off by reacting 10 mM glycine-HCl, pH 1.5.
row,Binder,He/Con_2aH (relative binding)
1,B1,102%
2,B2,44%
3,B3,39.5%
4,B4,71.2%
5,B5,75.3%
6,B6,71.9%
7,B7,71.5%
8,B8,62.5%
9,B9,85%
10,B10,60.2%
11,B11,77.8%
12,B12,67.5%
13,B13,68.5%
14,B14,73.6%
15,B15,66.6%
16,B16,67.4%
17,B17,51.1%

row,Binder,He/Con_2aH (relative binding)
1,B18,46.8%
2,B19,70%
3,B20,69.6%
4,B21,70.4%
5,B22,59%
6,B23,64.4%
7,B24,80.2%
8,B25,60.9%
9,B26,64.6%
10,B27,77.4%
11,B28,92%
12,B29,103%
13,B30,102%
14,B31,89.4%
15,B32,84.1%
16,B33,69.4%
17,B34,78.6%

# Target: T2, FcγRIIb
# Assay: as above
# Procedure: as §1, §2
row,Binder,He/Con_2b (relative binding)
1,B1,76.5%
2,B2,20.3%
3,B3,18.3%
4,B4,44.2%
5,B5,57.8%
6,B6,44.9%
7,B7,47.2%
8,B8,40.3%
9,B9,48%
10,B10,34.7%
11,B11,49.9%
12,B12,45.1%
13,B13,45%
14,B14,46.7%
15,B15,43.9%
16,B16,42.9%
17,B17,17.8%

row,Binder,He/Con_2b (relative binding)
1,B18,25.2%
2,B19,47.8%
3,B20,50.6%
4,B21,44.7%
5,B22,38.5%
6,B23,44.8%
7,B24,44.3%
8,B25,42.5%
9,B26,52.3%
10,B27,58.1%
11,B28,75.7%
12,B29,67.5%
13,B30,84.3%
14,B31,70.4%
15,B32,65.2%
16,B33,56.9%
17,B34,62.7%
